# B1: IL-27RAm(mFc1): Extracellular domain of mouse IL27RA fused to a wild type BALB/c mouse gamma2a constant region Fc tag (protein)
# chain: MNRLERVALARLETPRLEGLLELELESLEMSLELELEGTRPRHGSPRGPRLEQCYSVGPRLEGILENCSWGLPRLEGDLEGLTPRPRVLEYHQSQKYHPRNRVWGLVKVPRSKQSWVTIPRRGLQFTMADKLELEIWGTQKGRPRLEWSSVSVASNLEGLTQMKPRDTPRQIFSQVASPISGLGLATLEGLATVQWAPRPRVWPRPRQKALETCQFRYKGLCQAGLAWTRLEGLPRQLEKTDGLETPRVGLMQNLEGLPRGTCYQVSGRCQVGLNGYPRWGGLWSSPRLESFQTPRFLEDPRGLDVWVSGTVCGLTSGKRAALELEVWKDPRRPRCVQVTYTVWFGAGDITTTQGLGLVPRCCKSPRVPRAWMGLWAVVSPRGNSTSWVPRPRTNLESLEVCLEAPRGLSAPRCDVGVSSADGSPRGIKVTWKQGTARGSPRLEGLYVVASPWAQDGDSLEDKLENWTRLEPRPRGNLESTLELEPRGGLFKGGVPRYRITVTAVYSGGLEAAAPRSVWGFRGLGLLEVPRLEAGPRAVWRLEPRDDPRPRGTPRVVALAWGGLVPRRHQLERGQATHYTFCIQSRGLESTVCRNVSSQTQTATLEPRNLEHSGSFKLEWVTVSTVALAGQGPRPRGPRDLESLEHLEPRDNRIRWKALEPRWFLESLEWGLELELEMGCGLESLEASTRCLEQARCLEHWRHKLELEPRQWIWGLRVPRDPRANSNSGQPRYIKGLVSLEPRQPRPRKDGPRILEGLVGLGLVGLLEQPRVVGLSPRKASAPRIYSGYGLKHFLEPRTPRGLGLLEGLELEV
# modifications: left off: a dimerising Fc or GST
# notes: Extracellular domain of mouse IL27RA fused to a wild type BALB/c mouse gamma2a constant region Fc tag
# Experiments:
# [1] = target: T1, mouse ligand (single-chain IL27: EBI3 linked to IL-27 p28) (Mus musculus, UniProt O35228+Q8K3I6); assay: Surface plasmon resonance (BIACORE 3000) kinetic rate and affinity constants; type: binding; details: SPR
# T1 construct: purchased R&D Systems
# T1 sequence (O35228+Q8K3I6 with tags, fused parts or gaps): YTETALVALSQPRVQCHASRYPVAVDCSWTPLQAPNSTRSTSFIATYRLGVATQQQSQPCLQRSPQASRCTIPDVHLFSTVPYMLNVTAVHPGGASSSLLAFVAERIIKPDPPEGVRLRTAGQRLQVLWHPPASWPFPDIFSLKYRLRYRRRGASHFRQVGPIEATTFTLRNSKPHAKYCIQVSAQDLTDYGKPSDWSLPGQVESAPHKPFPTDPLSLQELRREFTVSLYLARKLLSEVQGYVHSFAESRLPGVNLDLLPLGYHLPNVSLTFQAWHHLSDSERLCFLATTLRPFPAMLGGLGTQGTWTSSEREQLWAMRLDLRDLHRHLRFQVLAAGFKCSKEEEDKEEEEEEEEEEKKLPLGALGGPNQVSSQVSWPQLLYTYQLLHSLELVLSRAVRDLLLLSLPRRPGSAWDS
# Experimental: Kinetic rate and affinity constant values for the mouse (IL27RAm(mFc1), Example 1) and human (IL27RA-Fc5, Example 2) soluble receptors were obtained by surface plasmon resonance (SPR) using an automated instrument (BIACORE 3000; Biacore International AB, Uppsala, Sweden). The mouse soluble receptor was tested against mouse ligand (lot A1418F), and the human soluble receptor was tested against both mouse (A1426F) and human (A1534F) ligands. For determination of the kinetic rate constants for the receptor-ligand interactions, the gp130 molecule was not included as part of the receptor complex.
# The IL27 ligands used in this study were single-chain molecules comprising EBI3 connected by its C-terminus to the N-terminus of IL-27 p28 via a polypeptide linker. (R&D Systems) Each of the ligands included an amino-terminal peptide tag.
# For the mouse IL27RA study, the soluble receptor was captured onto the chip surface by an isotype-specific anti-mouse Fc antibody (obtained from Jackson ImmunoResearch Laboratories, Inc., West Grove, Pa.) covalently immobilized to the chip (BIACORE CM5 chip) using the standard amine coupling protocol specified by the instrument manufacturer. For the human IL27RA studies, the soluble receptor was directly and covalently immobilized to the chip via the amine coupling protocol. In all studies, ligand was injected over the active (receptor-bound) surface at varying concentrations to obtain a series of binding curves.
# Experimental conditions were optimized for determination of kinetic rate constant values. The molecular densities of the soluble receptor protein loaded onto the chip surface were targeted to obtain maximum IL27 binding levels (Rmax) of ≦20 RU. The analyte (ligand) was injected over the receptor surface at a flow rate of […] at a concentration range of approximately 0.05 to 10 nM, allowing for an association phase of 3 minutes and a dissociation phase of 10 minutes. […]
# All data were assessed using software provided with the instrument (BIACORE Evaluation software v. 3.2). […]
# [2] = target: T2, huIL-27 (Homo sapiens, UniProt Q14213+Q8NEV9); assay: Phospho-STAT3 (BIO-PLEX) neutralization of IL-27 by soluble receptors, mouse spleens; type: cell-based; details: ligand huIL-27 at EC90 (2 nM)
# T2 construct: purchased R&D Systems
# T2 sequence (Q8NEV9 29-243): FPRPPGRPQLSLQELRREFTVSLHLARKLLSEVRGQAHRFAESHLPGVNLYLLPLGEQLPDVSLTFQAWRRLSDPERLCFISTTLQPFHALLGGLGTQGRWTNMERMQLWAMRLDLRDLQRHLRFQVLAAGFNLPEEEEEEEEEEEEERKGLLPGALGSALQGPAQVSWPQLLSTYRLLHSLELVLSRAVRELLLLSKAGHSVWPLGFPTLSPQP
# T2 sequence (Q14213 21-229): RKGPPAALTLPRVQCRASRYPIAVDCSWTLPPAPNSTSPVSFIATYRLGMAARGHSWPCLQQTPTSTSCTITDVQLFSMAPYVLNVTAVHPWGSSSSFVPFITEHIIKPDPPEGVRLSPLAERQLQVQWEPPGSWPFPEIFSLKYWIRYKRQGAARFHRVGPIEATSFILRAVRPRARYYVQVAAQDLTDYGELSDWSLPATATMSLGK
# Description: Whole mouse spleens were harvested from C57 B1/6 mice and washed two times with 1×PBS before being plated out at 2×10^5 cells/well in assay media (RPMI 1640 plus 10% fetal bovine serum) in 96-well, round-bottom tissue culture plates. Total human PBMC (peripheral blood mononuclear cells) were thawed from a frozen vial collected from a leukapherisis donation and washed two times with 1×PBS before being plated out at 10^6 cells/well in assay media in 96-well, round-bottom tissue culture plates. […] Following pre-incubation, treatments were added to the plates containing the cells and incubated together at 37° C. for 15 minutes.
# Following incubation, cells were washed with ice-cold wash buffer (BIO-PLEX Cell Lysis Kit, BIO-RAD Laboratories, Hercules, Calif.) and put on ice to stop the reaction according to manufacturer's instructions. […]
# Capture beads (BIO-PLEX Phospho-Stat3 Assay, BIO-RAD Laboratories) were combined with 50 μL of 1:1 diluted lysates and added to a 96-well filter plate according to manufacture's instructions (BIO-PLEX Phosphoprotein Detection Kit, BIO-RAD Laboratories). […] After the final wash, beads were resuspended in 125 μL/well of bead suspension buffer, shaken for 30 seconds, and read on an array reader (BIO-PLEX, BIO-RAD Laboratories) according to the manufacture's instructions. Data were analyzed using analytical software (BIO-PLEX MANAGER 3.0, BIO-RAD Laboratories). […]
molecule,measurement,setting,value
B1,ka,[1]; 1:1 binding model,1e+07 M⁻¹ s⁻¹
same,kd,[1]; 1:1 binding model,0.0012 s⁻¹
same,Kd,[1]; Kd=kd/ka,0.12 nM
same,IC50,[2],9.3 nM
